In US20240239878A1 (SHANGHAI QILU PHARMACEUTICAL RESEARCH AND DEVELOPMENT CENTRE, published 2024):
Residue numbers refer to the chain shown, from its start.

B1: 46A5A4 mouse hybridoma-derived anti-DLL3 chimeric antibody (antibody, V domains shown)
VH: QVQLQQSDAELVKPGASVKISCKVSGYTFTDHTIHWMKQRPEQGLEWIGYIYPRDGYTMYNEKFKGKATLTADKSSSTAYMQLNSLTSEDSAVHFCARAFHALDYWGQGTSVTVSS
VL: DIQMTQTTSSLSASLGDRVTFTCSASQGISNYLNWYQQKPDGTIKLLIYYTSSLHSGVPSRFSGSGSGTDYSLTISNLEPEDIATYYCQQYSKLPYTFGGGTKLEIK
B2: 39E2D11-1 mouse hybridoma-derived anti-DLL3 chimeric antibody (antibody, V domains shown)
VH: QVQLQQSGAELVKPGASVKMSCKASGYTFISYWITWVKQRPGQGLEWIGDIYPGSGSTTNYNEKFKSKATLTVDTSSSTAYMQLSSLTSEDSAVYYCARETTVGGAYAMDYWGQGTSVTVSS
VL: DIVLTQSPATLSVTPGDSVSLSCRASQSINNNLHWYQQKSHESPRLLIKYVSQSISGIPSRFSGSGSGTDFTLTINSVETEDFGMYFCQQTNSWPLTFGAGTKLELK
B3: 45E4D7 mouse hybridoma-derived anti-DLL3 chimeric antibody (antibody, V domains shown)
VH: QVQLQQPGAELVKPGTSVKLSCKASGYTFTSHWITWVKQRPGQGLEWIGDIYPISGSTNNNEKFRNKATLTVDTSSSTAYMQLSSLTSEDSAVYFCAKIITVGGAYVMDYWGQGTSVTVSS
VL: B2 VL with A9V, I29V, N30R, T74S, M85V, T91S
B4: 26C4D2 mouse hybridoma-derived anti-DLL3 chimeric antibody (antibody, V domains shown)
VH: QVQLQQPGAELVKPGASVKLSCKASGYSFTSYWMHWVKQRPGQGLEWIGMIHPTLGDTNYNEKFKSKATLTVDKSSSTAYMELSSLTSEDSAVYYCARLGSLSMMDYWGQGTSVTVSS
VL: B1 VL with F21I, T22S, I44V, S60A, T85I, L94F
B5: 48B6D7 mouse hybridoma-derived anti-DLL3 chimeric antibody (antibody, V domains shown)
VH: QVQLQQPGAELVKPGTSVKLSCEASGYTFSNYWMQWVRQRPGQGLEWIGMILPNSDITNYNENFQTKATLTVDKSSSTAYMQLSSLTSEDSAVYYCARQARYSAMDYWGQGTSVTVSS
VL: B1 VL with A13V, F21I, T22N, I44V, S53N, Q90H, L94F
B6: 27E10C5 mouse hybridoma-derived anti-DLL3 chimeric antibody (antibody, V domains shown)
VH: QVQLQQSGAELVKPGASVKISCKASGYAFSSQWMNWVKQRPGKGLEWIGQIYPGNGDTNYNGKFKGKATLTADKSSSTAYIQLSSLTSEDSAVYFCARWFAYWGQGTLVTVSA
VL: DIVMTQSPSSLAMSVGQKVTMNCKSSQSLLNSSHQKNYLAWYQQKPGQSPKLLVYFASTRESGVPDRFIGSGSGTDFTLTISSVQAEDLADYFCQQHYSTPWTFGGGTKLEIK

target: T1, human DLL3 on SHP-77 cells (human, UniProt Q9NYJ7 27-618); experiment: flow cytometry, SHP-77 cells
T1 construct: also called DLL3-expressing cells (SHP-77)
T1 sequence: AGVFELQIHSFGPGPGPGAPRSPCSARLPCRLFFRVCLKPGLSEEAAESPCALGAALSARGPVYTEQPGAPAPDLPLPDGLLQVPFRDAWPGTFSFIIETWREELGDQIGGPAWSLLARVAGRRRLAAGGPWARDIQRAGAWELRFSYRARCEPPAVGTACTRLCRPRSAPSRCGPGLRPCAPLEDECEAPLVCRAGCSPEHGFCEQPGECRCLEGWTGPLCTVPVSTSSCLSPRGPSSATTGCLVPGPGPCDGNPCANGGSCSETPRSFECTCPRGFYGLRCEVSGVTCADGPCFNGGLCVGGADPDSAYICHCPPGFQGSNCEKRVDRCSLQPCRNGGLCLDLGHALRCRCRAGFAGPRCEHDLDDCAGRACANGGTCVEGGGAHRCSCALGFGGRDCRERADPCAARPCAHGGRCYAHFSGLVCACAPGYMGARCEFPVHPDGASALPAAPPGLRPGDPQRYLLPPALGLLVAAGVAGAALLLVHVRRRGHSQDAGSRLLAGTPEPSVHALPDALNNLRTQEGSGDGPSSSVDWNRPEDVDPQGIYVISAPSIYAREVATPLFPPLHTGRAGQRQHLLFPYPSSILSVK
Experimental: SHP-77 cells were cultured. The culture medium for SHP-77 cells was RPMI1640+10% FBS. The cells were cultured in a T75 cell culture flask at a 37° C. 5% CO₂ incubator. When using cells, they are washed with sterile DPBS, digested with 0.25% trypsin EDTA for about 5 minutes, and then stopped with a complete medium.
(§1) The digested cells were centrifuged at 1000 rpm for 5 min at room temperature. The supernatant was discarded and the cells were resuspended in 100 μL of 1% BSA (in PBS). The cells were counted and adjusted to a cell density of 1E6/m. The dilute cells were plated in a 96-well round-bottom culture plate (corning 3799), and centrifuged at 1500 rpm for 5 min at 4° C. The supernatant was discarded and the cells were stored at 4° C. until use. Antibody samples to be tested were diluted with 1% BSA (in PBS) at a starting concentration of 100 nM, downwards by a 10-fold gradient for 7 concentrations. The cells were resuspended with the diluted antibody at 100 μL/well and incubated for 1 hour at 4° C. The cells were centrifuged at 1500 rpm for 5 minutes at 4° C. and the supernatant was discarded. The cells were resuspended and washed with 160 μL of 1% BSA (in PBS), centrifuged at 1500 rpm for 5 minutes at 4° C. The supernatant was discarded. The secondary antibody (goat anti human IgG Fc PE) was diluted 1:200 with 1% BSA (in PBS) according to the manufacturer's instructions and the cells were resuspended with the diluted secondary antibody, 100 µL/well, and incubated for 0.5 h at 4° C. The cells were centrifuged at 1500 rpm for 5 minutes at 4° C. and the supernatant was discarded. The cells were resuspended and washed with 160 μL of 1% BSA (in PBS), centrifuged at 1500 rpm for 5 minutes at 4° C. The supernatant was discarded. The cells were resuspended in 100 μL of 1% BSA (in PBS), and filtered across a 300 mesh gauze. The mean fluorescence intensity of the PE channels was measured by flow cytometry.
(§2) The analyzed mean fluorescence intensity was imported into Graphpad to analyze the median-binding concentration (hereinafter referred to as EC50) of antibody and cell and the top mean fluorescence intensity (Top MFI).

What does the source list for B1?
EC50: 1.2 nM; Top MFI: 1570 MFI

Which EC50 does the source give for B2 here?
Its EC50 is 1.49 nM.

What about the “Top MFI” value of the same binder?
Its value is 1650 MFI.

B3 was tested. Which EC50 did it give?
Its EC50 is 0.894 nM.

What about the “Top MFI” value of the same binder?
Its value is 1560 MFI.

target: T1, human DLL3 on SHP-77 cells; experiment: flow cytometry, SHP-77 cells; remark: another data set of the same source
Experimental: (§3) SHP-77 and HEK293-cyno DLL3 cells were cultured. The culture medium for SHP-77 cells were RPMI1640+10% FBS, and the culture medium for HEK293 cyno DLL3 cells was DMEM+10% FBS+200 μg/ml Hygromycin. The cells were cultured in a T75 cell culture flask at a 37° C. 5% CO₂ incubator. When using cells, they are washed with sterile DPBS, digested with 0.25% trypsin EDTA for about 5 minutes, and then stopped with a complete medium.
as §1, with “seeded” for “plated”, “antibody.” for “antibody,”
as §2

B4 was tested. Which EC50 did it give?
Its EC50 is 0.6 nM.

What about the “Top MFI” value of the same binder?
The value was 1050 MFI.

With B1 as the binder, how does the EC50 read?
Its EC50 is 1.18 nM.

What about the “Top MFI” value of the same binder?
Its value is 1010 MFI.

B5 was tested. Which EC50 did it give?
The EC50 was 0.65 nM.

And the “Top MFI” value?
Its value is 990 MFI.

Which results are given for B2?
EC50: 0.85 nM; Top MFI: 999 MFI

B3 was tested. Which EC50 did it give?
The EC50 was 0.68 nM.

What about the “Top MFI” value of the same binder?
Its value is 965 MFI.

How did the EC50 turn out when B6 was run?
Its EC50 is 1.2 nM.

And the “Top MFI” value?
The value was 813 MFI.

Target: T2, Cynomolgus monkey DLL3 on HEK293 cells (HEK293-cyno DLL3) (Cynomolgus monkey, UniProt Q9NYJ7 27-618 (human entry))
T2 chain: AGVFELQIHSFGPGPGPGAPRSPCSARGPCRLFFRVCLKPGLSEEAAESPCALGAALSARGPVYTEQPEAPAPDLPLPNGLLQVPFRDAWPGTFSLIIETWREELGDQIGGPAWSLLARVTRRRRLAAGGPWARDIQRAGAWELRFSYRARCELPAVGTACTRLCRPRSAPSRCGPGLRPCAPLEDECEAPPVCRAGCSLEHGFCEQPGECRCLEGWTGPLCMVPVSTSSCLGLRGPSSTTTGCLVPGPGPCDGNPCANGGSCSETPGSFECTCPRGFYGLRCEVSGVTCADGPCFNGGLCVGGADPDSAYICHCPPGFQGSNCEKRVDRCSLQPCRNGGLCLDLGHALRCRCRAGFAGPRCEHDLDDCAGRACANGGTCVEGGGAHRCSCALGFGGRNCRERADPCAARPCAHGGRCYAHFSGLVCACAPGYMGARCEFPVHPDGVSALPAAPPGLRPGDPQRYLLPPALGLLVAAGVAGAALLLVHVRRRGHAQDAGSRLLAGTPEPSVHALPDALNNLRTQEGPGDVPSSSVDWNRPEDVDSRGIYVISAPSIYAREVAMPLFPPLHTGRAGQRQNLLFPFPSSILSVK
Experiment: flow cytometry, HEK293-cyno DLL3 cells
Experimental: as §3
as §1, with “seeded” for “plated”, “antibody.” for “antibody,”
as §2

Which EC50 does the source give for B4 here?
The EC50 was 0.43 nM.

And the “Top MFI” value?
Its value is 421 MFI.

Which results are given for B1?
EC50: 0.67 nM; Top MFI: 475 MFI

For B5, which EC50 is on record?
The EC50 was 0.53 nM.

What about the “Top MFI” value of the same binder?
Its value is 480 MFI.

For B2, which EC50 is on record?
The EC50 was 1.03 nM.

What about the “Top MFI” value of the same binder?
Its value is 445 MFI.

For B3, which EC50 is on record?
Its EC50 is 0.71 nM.

What about the “Top MFI” value of the same binder?
Its value is 454 MFI.

What does the source list for B6?
EC50: 1.39 nM; Top MFI: 396 MFI
